According to US20250320312A1 (OXITOPE PHARMA B V, published 2025):

How the values were obtained:
Assay in all cases: scFv ELISA
BSA = BSA (UniProt P02769)
[1] = target: Peptide 5: Biotin-…-[Tyr(PC)]-acid
[2] = target: Peptide 1: Biotin-…-[Tyr(PC)]-acid
[3] = target: T1, Peptide 8: Biotin-AEAAAKEAAAKEAAAKEAAAKAAA-Tyr-acid (N-terminal biotin; C-terminal acid)
T1 construct: control peptide without PC
T1 peptide: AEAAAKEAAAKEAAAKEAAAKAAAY
Experimental: (§1) For ELISA analysis of scFv binding, 96-well polystyrene plates were coated with Peptide 1, 4, 5, 8 or 100 μL BSA (10 μg/mL) in PBS at 4° C. overnight. Plates were washed three times with PBS-Tween and blocked with 100 μL 1% BSA-TBS for 1 hour at room temperature. 96-well streptavidin coated plates were coated with 100 μL biotinylated PC-peptides (1 μg/mL) in PBS for 1 hour at room temperature.
(§2) All plates were washed three times with PBS-Tween before 40 μL aliquots of PPE were added to assay plates along with 50 μL 10% BSA, and plates were incubated for 1 hour at room temperature. After washing, […] HRP conjugated anti-V5 in 5% BSA was added, and plates were incubated at room temperature for 30 mins. Plates were washed and 100 μL TMB substrate was added. Color was left to develop at room temperature before the reaction was stopped with 100 μL 1N HCl. The amount of scFv bound to each well was quantitated from absorbance measurement at 450 nm (OD450).

[4] = target: T2, Peptide 4: Biotin-AGGGGSGGGGSGGGGSAAA-Tyr-acid (N-terminal biotin; C-terminal acid)
T2 construct: control peptide without PC
T2 peptide: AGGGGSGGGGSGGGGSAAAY
Experimental: as §1, §2

BSA, sequence (P02769 25-607 limits assumed): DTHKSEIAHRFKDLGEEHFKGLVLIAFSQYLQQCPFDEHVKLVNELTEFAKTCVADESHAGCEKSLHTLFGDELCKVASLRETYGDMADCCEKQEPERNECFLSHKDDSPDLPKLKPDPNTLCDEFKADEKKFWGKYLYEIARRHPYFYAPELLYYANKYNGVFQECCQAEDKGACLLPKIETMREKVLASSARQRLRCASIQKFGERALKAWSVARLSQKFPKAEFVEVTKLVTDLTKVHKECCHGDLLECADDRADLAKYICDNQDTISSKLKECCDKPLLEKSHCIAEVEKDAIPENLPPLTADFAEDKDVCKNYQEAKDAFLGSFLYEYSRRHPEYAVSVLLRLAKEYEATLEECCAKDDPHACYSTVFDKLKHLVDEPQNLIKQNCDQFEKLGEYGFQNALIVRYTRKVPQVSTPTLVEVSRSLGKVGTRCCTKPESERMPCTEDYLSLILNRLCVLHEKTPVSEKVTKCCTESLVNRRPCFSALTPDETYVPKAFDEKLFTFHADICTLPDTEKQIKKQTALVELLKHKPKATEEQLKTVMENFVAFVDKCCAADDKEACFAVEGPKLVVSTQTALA

| Binder | OD450 (BSA) | OD450 [1] | OD450 [2] | OD450 [3] | OD450 [4] |
| --- | --- | --- | --- | --- | --- |
| PcOxP_DB02_C09 (scFv, V domains shown, scFv in periplasmic extract) VH: EVQLLESGGGLVQPGGSLRLSCAASGFTFSDAYMEWVRQAPGKGLEWVAASRNKANDYTTEYADSVKGRFTISRDNSKNTLYLQMNSLRAEDTAVYYCARDYYGSSYWYFDVWGQGTLVTVSS VL: DIQMTQSPSSLSASVGDRVTITCTASESLYSSKHKVHYLAWYQQKPGKAPKLLIYGAGNRYIGVPSRFSGSGSGTDFTLTISSLQPEDFATYYCAQFYFYPLTFGGGTKVEIK | 0.1 OD450 | 1.01 OD450 | 0.69 OD450 | 0.04 OD450 | 0.05 OD450 |
| PcOxP_DB02_C02 (scFv, V domains shown, scFv in periplasmic extract) VH: EVQLLESGGGLVQPGGSLRLSCAASGFTFSDFYMEWVRQAPGKGLEWVAASRNKANDYTVEYADSVKGRFTISRDNSKNTLYLQMNSLRAEDTAVYYCARDYYGHSYWYFDVWGQGTLVTVSS VL: DIQMTQSPSSLSASVGDRVTITCTASESLYSSKHKVHYLAWYQQKPGKAPKLLIYGASNRYIGVPSRFSGSGSGTDFTLTISSLQPEDFATYYCAQFYSYPLTFGGGTKVEIK | 0.1 OD450 | 0.62 OD450 | 0.35 OD450 | 0.05 OD450 | 0.05 OD450 |
| PcOxP_DB02_C01 (scFv, V domains shown, scFv in periplasmic extract) VH: EVQLLESGGGLVQPGGSLRLSCAASGFTFSDAYMEWVRQAPGKGLEWVAASRNKANDYTTEYADSVKGRFTISRDNSKNTLYLQMNSLRAEDTAVYYCARDYYGSSYWYFDVWGQGTLVTVSS VL: DIQMTQSPSSLSASVGDRVTITCTASESLYSSKHKVHYLAWYQQKPGKAPKLLIYGASNRYIGVPSRFSGSGSGTDFTLTISSLQPEDFATYYCAQFYSYPLTFGGGTKVEIK | 0.1 OD450 | 1.47 OD450 | 1.03 OD450 | 0.05 OD450 | 0.06 OD450 |
| PcOxP_DB02_D01 (scFv, V domains shown, scFv in periplasmic extract) VH: EVQLLESGGGLVQPGGSLRLSCAASGFGFSDFYMEWVRQAPGKGLEWVAASRHKANDYTTEYADSVKGRFTISRDNSKNTLYLQMNSLRAEDTAVYYCARDYYGSSYWYFDVWGQGTLVTVSS VL: DIQMTQSPSSLSASVGDRVTITCTASESLYSSKHKVHYLAWYQQKPGKAPKLLIYGASNRYIGVPSRFSGSGSGTDFTLTISSLQPEDFATYYCAQFYWYPLTFGGGTKVEIK | 0.09 OD450 | 0.35 OD450 | 0.31 OD450 | 0.05 OD450 | 0.05 OD450 |
| PcOxP_DB02_C06 (scFv, V domains shown, scFv in periplasmic extract) VH: EVQLLESGGGLVQPGGSLRLSCAASGFTFSDAYMEWVRQAPGKGLEWVAASRNKANDYTTEYADSVKGRFTISRDNSKNTLYLQMNSLRAEDTAVYYCARDYYGSSYWYFDVWGQGTLVTVSS VL: DIQMTQSPSSLSASVGDRVTITCTASEWLYSSKHKVHYLAWYQQKPGKAPKLLIYGASNRNIGVPSRFSGSGSGTDFTLTISSLQPEDFATYYCAQFYYYPLTFGGGTKVEIK | 0.11 OD450 | 1.03 OD450 | 0.54 OD450 | 0.05 OD450 | 0.05 OD450 |
| PcOxP_DB02_A12 (scFv, V domains shown, scFv in periplasmic extract) VH: EVQLLESGGGLVQPGGSLRLSCAASGFTFSDDYMEWVRQAPGKGLEWVAASRNKANDYTTEYADSVKGRFTISRDNSKNTLYLQMNSLRAEDTAVYYCARDYQGSSYWYFDVWGQGTLVTVSS VL: DIQMTQSPSSLSASVGDRVTITCTASESLYSSKHKVHYLAWYQQKPGKAPKLLIYGAFNRYTGVPSRFSGSGSGTDFTLTISSLQPEDFATYYCAQFYTYPLTFGGGTKVEIK | 0.06 OD450 | 0.27 OD450 | 0.2 OD450 | 0.06 OD450 | 0.05 OD450 |
| PcOxP_DB02_A09 (scFv, V domains shown, scFv in periplasmic extract) VH: EVQLLESGGGLVQPGGSLRLSCAASGFTFSDTYMEWVRQAPGKGLEWVAASRNKANDYTTEYADSVKGRFTISRDNSKNTLYLQMNSLRAEDTAVYYCARDYYGSSYWYFDVWGQGTLVTVSS VL: DIQMTQSPSSLSASVGDRVTITCTASESLYSSKHKVHYLAWYQQKPGKAPKLLIYGASNRQSGVPSRFSGSGSGTDFTLTISSLQPEDFATYYCAQFYWYPLTFGGGTKVEIK | 0.11 OD450 | 1.3 OD450 | 0.98 OD450 | 0.04 OD450 | 0.05 OD450 |
| PcOxP_DB02_D09 (scFv, V domains shown, scFv in periplasmic extract) VH: EVQLLESGGGLVQPGGSLRLSCAASGFTFSTFYMEWVRQAPGKGLEWVAASRNKANDYTTEYADSVKGRFTISRDNSKNTLYLQMNSLRAEDTAVYYCARDYYGSSYWYFDVWGQGTLVTVSS VL: DIQMTQSPSSLSASVGDRVTITCTASESLYSSKHKVHYLAWYQQKPGKAPKLLIYGASNRYGGVPSRFSGSGSGTDFTLTISSLQPEDFATYYCAQFYEYPLTFGGGTKVEIK | 0.11 OD450 | 0.44 OD450 | 0.16 OD450 | 0.04 OD450 | 0.05 OD450 |
